Assays:
Experiment in all cases: cell-based or functional assay
[1] = molecular target: HIV-1 Env of pseudovirus 1006_11_C3_1601 (HIV-1)
[2] = molecular target: HIV-1 Env of pseudovirus 1394C9G1(Rev-) (HIV-1)
[3] = molecular target: HIV-1 Env of pseudovirus 263-8 (HIV-1)
[4] = molecular target: HIV-1 Env of pseudovirus 6244_13_B5_4576 (HIV-1)
[5] = molecular target: HIV-1 Env of pseudovirus 6540.v4.c1 (HIV-1)
[6] = molecular target: HIV-1 Env of pseudovirus 6545.v4.c1 (HIV-1)
[7] = molecular target: HIV-1 Env of pseudovirus 6811.v7.c18 (HIV-1)
[8] = molecular target: HIV-1 Env of pseudovirus 89-F1_2_25 (HIV-1)
[9] = molecular target: HIV-1 Env of pseudovirus 9004SS_A3_4 (HIV-1)
[10] = molecular target: HIV-1 Env of pseudovirus 928-28 (HIV-1)
[11] = molecular target: HIV-1 Env of pseudovirus A07412M1.vrc12 (HIV-1)
[12] = molecular target: HIV-1 Env of pseudovirus BF1266.431a (HIV-1)
[13] = molecular target: HIV-1 Env of pseudovirus BJOX010000.06.2 (HIV-1)
[14] = molecular target: HIV-1 Env of pseudovirus BJOX015000.11.5 (HIV-1)
[15] = molecular target: HIV-1 Env of pseudovirus C4118.c09 (HIV-1)
[16] = molecular target: HIV-1 Env of pseudovirus CNE20 (HIV-1)
[17] = molecular target: HIV-1 Env of pseudovirus CNE30 (HIV-1)
[18] = molecular target: HIV-1 Env of pseudovirus CNE5 (HIV-1)
[19] = molecular target: HIV-1 Env of pseudovirus Ce2060_G9 (HIV-1)
[20] = molecular target: HIV-1 Env of pseudovirus Du422.1 (HIV-1)
[21] = molecular target: HIV-1 Env of pseudovirus MS208.A1 (HIV-1)
[22] = molecular target: HIV-1 Env of pseudovirus P0402_c2_11 (HIV-1)
[23] = molecular target: HIV-1 Env of pseudovirus PVO.4 (HIV-1)
[24] = molecular target: HIV-1 Env of pseudovirus Q769.d22 (HIV-1)
[25] = molecular target: HIV-1 Env of pseudovirus QH0692.42 (HIV-1)
[26] = molecular target: HIV-1 Env of pseudovirus R1166.c01 (HIV-1)
[27] = molecular target: HIV-1 Env of pseudovirus SC05_8C11_2344 (HIV-1)
[28] = molecular target: HIV-1 Env of pseudovirus T257-31 (HIV-1)
[29] = molecular target: HIV-1 Env of pseudovirus T278-50 (HIV-1)
[30] = molecular target: HIV-1 Env of pseudovirus TRJO4551.58 (HIV-1)
[31] = molecular target: HIV-1 Env of pseudovirus WITO4160.33 (HIV-1)
[32] = molecular target: HIV-1 Env of pseudovirus X1632_S2_B10 (HIV-1)
[33] = molecular target: HIV-1 Env of pseudovirus X2131_C1_B5 (HIV-1)
[34] = molecular target: HIV-1 Env of pseudovirus ZM135M.PL10a (HIV-1)
[35] = molecular target: HIV-1 Env of pseudovirus ZM197M.PB7 (HIV-1)
[36] = molecular target: HIV-1 Env of pseudovirus ZM214M.PL15 (HIV-1)
[37] = molecular target: HIV-1 Env of pseudovirus ZM249M.PL1 (HIV-1)

VRC07 (antibody) gave a neutralization IC50 [1] of 0.015 µg/mL, a neutralization IC80 [1] of 0.046 µg/mL and a neutralization IC50 [2] of 0.112 µg/mL. It also gave a neutralization IC80 [2] of 0.368 µg/mL, a neutralization IC50 [3] of 0.103 µg/mL and a neutralization IC80 [3] of 0.282 µg/mL. For the same substance, the neutralization IC50 [4] was 0.065 µg/mL, the neutralization IC80 [4] was 0.23 µg/mL and the IC50, titer in TZM.bl cells [5] was > 50 µg/mL. The IC80, titer in TZM.bl cells [5] was > 50 µg/mL, the IC50, titer in TZM.bl cells [6] was > 50 µg/mL and the IC80, titer in TZM.bl cells [6] was > 50 µg/mL. The IC50, titer in TZM.bl cells [7] was 0.093 µg/mL, the IC80, titer in TZM.bl cells [7] was 0.435 µg/mL and the IC50, titer in TZM.bl cells [8] was > 50 µg/mL. The IC80, titer in TZM.bl cells [8] was > 50 µg/mL, the neutralization IC50 [9] was 0.218 µg/mL and the neutralization IC80 [9] was 0.75 µg/mL. For the same substance, the neutralization IC50 [10] was 0.278 µg/mL, the neutralization IC80 [10] was 0.957 µg/mL and the IC50, titer in TZM.bl cells [11] was 0.11 µg/mL. For the same substance, the IC80, titer in TZM.bl cells [11] was 0.353 µg/mL, the neutralization IC50 [12] was 0.032 µg/mL and the neutralization IC80 [12] was 0.117 µg/mL. It also gave an IC50, titer in TZM.bl cells [13] of 1.06 µg/mL, an IC80, titer in TZM.bl cells [13] of 10 µg/mL and an IC50, titer in TZM.bl cells [14] of 0.054 µg/mL. The IC80, titer in TZM.bl cells [14] was 0.479 µg/mL, the IC50, titer in TZM.bl cells [15] was 0.121 µg/mL and the IC80, titer in TZM.bl cells [15] was 0.444 µg/mL. It also gave a neutralization IC50 [16] of 0.06 µg/mL, a neutralization IC80 [16] of 0.129 µg/mL and a neutralization IC50 [17] of 0.326 µg/mL. The neutralization IC80 [17] was 1.08 µg/mL, the IC50, titer in TZM.bl cells [18] was 0.138 µg/mL and the IC80, titer in TZM.bl cells [18] was 0.524 µg/mL. For the same substance, the neutralization IC50 [19] was 0.085 µg/mL, the neutralization IC80 [19] was 0.422 µg/mL and the neutralization IC50 [20] was > 50 µg/mL. For the same substance, the neutralization IC80 [20] was > 50 µg/mL, the neutralization IC50 [21] was 0.12 µg/mL and the neutralization IC80 [21] was 0.425 µg/mL. For the same substance, the IC50, titer in TZM.bl cells [22] was 0.085 µg/mL, the IC80, titer in TZM.bl cells [22] was 0.422 µg/mL and the neutralization IC50 [23] was 0.063 µg/mL. It also gave a neutralization IC80 [23] of 0.226 µg/mL, a neutralization IC50 [24] of 0.018 µg/mL and a neutralization IC80 [24] of 0.087 µg/mL. It also gave a neutralization IC50 [25] of 0.5 µg/mL, a neutralization IC80 [25] of 1.86 µg/mL and an IC50, titer in TZM.bl cells [26] of 0.81 µg/mL. For the same substance, the IC80, titer in TZM.bl cells [26] was 3.17 µg/mL, the neutralization IC50 [27] was 0.133 µg/mL and the neutralization IC80 [27] was 0.401 µg/mL. The neutralization IC50 [28] was 0.421 µg/mL, the neutralization IC80 [28] was 3.17 µg/mL and the IC50, titer in TZM.bl cells [29] was > 50 µg/mL. The IC80, titer in TZM.bl cells [29] was > 50 µg/mL, the neutralization IC50 [30] was 0.032 µg/mL and the neutralization IC80 [30] was 0.125 µg/mL. The neutralization IC50 [31] was 0.042 µg/mL, the neutralization IC80 [31] was 0.193 µg/mL and the IC50, titer in TZM.bl cells [32] was 0.023 µg/mL. For the same substance, the IC80, titer in TZM.bl cells [32] was 0.107 µg/mL, the IC50, titer in TZM.bl cells [33] was 0.219 µg/mL and the IC80, titer in TZM.bl cells [33] was 1.03 µg/mL. It also gave a neutralization IC50 [34] of 0.104 µg/mL, a neutralization IC80 [34] of 0.383 µg/mL and a neutralization IC50 [35] of 0.307 µg/mL. It also gave a neutralization IC80 [35] of 1.27 µg/mL, a neutralization IC50 [36] of 0.198 µg/mL and a neutralization IC80 [36] of 1.42 µg/mL. The neutralization IC50 [37] was 0.041 µg/mL and the neutralization IC80 [37] was 0.145 µg/mL.
